The results in this text go back to US20170000857A1.

The experiment concerns the target ALMS1 (Alstrom syndrome protein 1) (human) (UniProt Q8TCU4). In words: cell-based or functional assay.
UniProt Q8TCU4, sequence (Q8TCU4 other isoform, or with tags, fused parts or gaps limits assumed): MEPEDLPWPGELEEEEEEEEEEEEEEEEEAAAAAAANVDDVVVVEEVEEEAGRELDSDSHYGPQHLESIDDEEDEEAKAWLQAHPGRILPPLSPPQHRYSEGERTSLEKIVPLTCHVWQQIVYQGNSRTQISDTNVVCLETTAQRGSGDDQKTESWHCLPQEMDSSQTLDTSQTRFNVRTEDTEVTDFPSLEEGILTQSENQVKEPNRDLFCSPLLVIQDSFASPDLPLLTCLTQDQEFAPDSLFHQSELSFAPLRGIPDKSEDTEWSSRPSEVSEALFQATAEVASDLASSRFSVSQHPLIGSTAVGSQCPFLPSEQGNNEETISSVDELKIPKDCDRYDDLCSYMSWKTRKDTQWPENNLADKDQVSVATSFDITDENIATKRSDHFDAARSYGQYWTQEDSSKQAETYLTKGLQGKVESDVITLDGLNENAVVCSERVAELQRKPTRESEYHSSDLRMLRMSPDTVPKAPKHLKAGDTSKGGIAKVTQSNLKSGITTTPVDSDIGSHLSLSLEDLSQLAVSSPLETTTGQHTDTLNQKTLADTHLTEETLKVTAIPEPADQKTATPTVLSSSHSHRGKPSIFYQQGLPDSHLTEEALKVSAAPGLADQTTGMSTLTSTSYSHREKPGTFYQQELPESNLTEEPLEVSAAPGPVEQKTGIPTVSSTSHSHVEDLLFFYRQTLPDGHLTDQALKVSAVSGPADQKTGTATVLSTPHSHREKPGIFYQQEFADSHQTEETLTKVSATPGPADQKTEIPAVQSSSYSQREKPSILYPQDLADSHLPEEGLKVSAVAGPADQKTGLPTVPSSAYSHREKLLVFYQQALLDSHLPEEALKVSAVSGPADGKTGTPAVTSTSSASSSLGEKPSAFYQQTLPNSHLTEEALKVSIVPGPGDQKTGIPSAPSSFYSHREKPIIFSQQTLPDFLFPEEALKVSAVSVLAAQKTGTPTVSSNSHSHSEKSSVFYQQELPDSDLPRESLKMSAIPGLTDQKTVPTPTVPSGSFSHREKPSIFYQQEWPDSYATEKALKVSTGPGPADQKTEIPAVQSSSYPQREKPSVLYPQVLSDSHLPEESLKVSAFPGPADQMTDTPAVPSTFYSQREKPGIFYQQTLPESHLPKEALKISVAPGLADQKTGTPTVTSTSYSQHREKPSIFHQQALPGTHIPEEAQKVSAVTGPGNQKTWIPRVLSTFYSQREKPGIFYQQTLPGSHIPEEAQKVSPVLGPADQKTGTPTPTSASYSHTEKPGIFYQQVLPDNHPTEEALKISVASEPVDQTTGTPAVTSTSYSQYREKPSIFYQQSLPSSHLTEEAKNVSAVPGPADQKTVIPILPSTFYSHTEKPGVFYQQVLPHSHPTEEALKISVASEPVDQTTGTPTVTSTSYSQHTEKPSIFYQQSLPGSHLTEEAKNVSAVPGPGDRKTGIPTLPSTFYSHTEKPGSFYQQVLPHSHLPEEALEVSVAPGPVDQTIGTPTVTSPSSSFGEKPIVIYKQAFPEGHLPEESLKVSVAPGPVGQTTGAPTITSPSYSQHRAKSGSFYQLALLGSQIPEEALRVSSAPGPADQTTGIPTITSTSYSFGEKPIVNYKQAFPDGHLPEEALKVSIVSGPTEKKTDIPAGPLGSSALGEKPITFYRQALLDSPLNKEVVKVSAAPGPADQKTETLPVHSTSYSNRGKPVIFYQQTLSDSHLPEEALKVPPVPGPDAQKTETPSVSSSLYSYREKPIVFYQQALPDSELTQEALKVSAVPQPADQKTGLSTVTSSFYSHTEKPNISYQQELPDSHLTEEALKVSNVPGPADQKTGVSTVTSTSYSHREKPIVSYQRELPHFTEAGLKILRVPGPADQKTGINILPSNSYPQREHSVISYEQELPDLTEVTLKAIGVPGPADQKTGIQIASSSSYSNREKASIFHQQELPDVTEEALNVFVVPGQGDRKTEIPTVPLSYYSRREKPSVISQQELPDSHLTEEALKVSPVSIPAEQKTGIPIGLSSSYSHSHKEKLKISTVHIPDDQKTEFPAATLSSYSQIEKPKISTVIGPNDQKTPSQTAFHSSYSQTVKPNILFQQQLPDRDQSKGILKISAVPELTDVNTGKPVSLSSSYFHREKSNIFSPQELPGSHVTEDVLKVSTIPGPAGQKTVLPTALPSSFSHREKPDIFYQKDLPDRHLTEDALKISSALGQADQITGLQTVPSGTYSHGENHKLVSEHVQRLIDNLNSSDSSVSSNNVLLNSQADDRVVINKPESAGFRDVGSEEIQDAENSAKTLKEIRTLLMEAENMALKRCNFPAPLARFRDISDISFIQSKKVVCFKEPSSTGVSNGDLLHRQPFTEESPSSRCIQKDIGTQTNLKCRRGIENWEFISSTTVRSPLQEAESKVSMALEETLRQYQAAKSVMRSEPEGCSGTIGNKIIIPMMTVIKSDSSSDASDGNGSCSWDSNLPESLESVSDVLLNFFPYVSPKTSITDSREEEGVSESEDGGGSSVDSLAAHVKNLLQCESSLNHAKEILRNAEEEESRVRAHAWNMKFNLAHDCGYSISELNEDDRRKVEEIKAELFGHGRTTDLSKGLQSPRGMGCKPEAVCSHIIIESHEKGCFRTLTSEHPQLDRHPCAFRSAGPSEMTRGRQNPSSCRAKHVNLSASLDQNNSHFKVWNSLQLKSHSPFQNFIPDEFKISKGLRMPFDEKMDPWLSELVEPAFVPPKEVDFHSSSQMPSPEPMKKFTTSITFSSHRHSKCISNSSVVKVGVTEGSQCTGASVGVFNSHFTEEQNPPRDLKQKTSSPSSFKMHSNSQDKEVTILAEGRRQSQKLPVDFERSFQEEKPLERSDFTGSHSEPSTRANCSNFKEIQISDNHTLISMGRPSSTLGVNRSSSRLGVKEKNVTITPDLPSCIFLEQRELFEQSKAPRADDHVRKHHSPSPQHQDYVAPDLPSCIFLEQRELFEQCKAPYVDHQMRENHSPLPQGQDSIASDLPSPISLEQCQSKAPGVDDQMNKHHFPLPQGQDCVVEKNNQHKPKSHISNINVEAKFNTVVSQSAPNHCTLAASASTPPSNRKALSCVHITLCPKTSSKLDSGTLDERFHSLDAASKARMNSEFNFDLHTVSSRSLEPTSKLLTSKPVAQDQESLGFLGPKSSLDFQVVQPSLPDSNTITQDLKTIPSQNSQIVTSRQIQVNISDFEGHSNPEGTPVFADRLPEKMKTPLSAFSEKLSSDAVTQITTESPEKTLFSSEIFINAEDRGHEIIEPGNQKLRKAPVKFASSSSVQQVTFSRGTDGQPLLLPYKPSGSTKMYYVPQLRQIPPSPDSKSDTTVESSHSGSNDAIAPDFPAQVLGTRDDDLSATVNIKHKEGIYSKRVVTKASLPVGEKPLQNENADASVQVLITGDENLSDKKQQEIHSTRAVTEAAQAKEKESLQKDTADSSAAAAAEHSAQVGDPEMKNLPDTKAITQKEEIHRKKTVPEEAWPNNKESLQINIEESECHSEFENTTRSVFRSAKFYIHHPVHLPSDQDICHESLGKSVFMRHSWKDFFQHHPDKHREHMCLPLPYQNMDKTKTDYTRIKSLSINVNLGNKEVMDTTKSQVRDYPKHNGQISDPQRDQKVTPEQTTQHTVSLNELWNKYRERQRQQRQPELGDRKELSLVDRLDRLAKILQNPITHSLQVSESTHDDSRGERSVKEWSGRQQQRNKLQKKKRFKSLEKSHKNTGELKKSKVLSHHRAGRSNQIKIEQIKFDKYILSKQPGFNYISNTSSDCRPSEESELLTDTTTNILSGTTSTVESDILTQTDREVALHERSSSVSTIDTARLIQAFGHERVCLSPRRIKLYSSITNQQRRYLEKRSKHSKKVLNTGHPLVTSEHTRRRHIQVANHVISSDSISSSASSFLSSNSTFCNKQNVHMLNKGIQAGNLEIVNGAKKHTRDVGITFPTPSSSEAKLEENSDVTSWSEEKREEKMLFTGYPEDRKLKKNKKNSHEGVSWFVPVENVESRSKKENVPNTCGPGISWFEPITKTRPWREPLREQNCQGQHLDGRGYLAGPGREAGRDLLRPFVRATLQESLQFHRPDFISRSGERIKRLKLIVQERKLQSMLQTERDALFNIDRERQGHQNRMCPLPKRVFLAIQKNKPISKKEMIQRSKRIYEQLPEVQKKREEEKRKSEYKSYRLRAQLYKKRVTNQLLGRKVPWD

“min-αPKC-FLAG (ALMS1-interacting domain of human PKCα with N-terminal FLAG tag) (from UniProt P05696 336-672)”: the 2-NBDG absorption in mature adipocytes in absence of INS (times (vs control)) is 3.5.
